Measurements as given in article PMC10328973.

Target: UKNP5.2.1 E2E1-I53-50A trimer (hepatitis C virus genotype 5, strain UKNP5.2.1)

B1: chimeric HEPC74 HC – VRC01 LC (antibody, V domains shown)
VH: QVQLVQSGAEVKKPGSSVKVSCTTSGGTYINYAISWVRQAPGQGLEWVGGMSPISNTPKYAQKFQGRVTITADESTSTTYMELSSLRPEDTAVYYCARDLLKYCGGGNCHSLLVDPWGQGTLVTVSS
VL: EIVLTQSPGTLSLSPGETAIISCRTSQYGSLAWYQQRPGQAPRLVIYSGSTRAAGIPDRFSGSRWGPDYNLTISNLESGDFGVYYCQQYEFFGQGTKVQVD
neutralisation of UKNP5.2.1 HCVpp, IC50 (the only HCVpp neutralised): 4.4 µg/mL
